Assay results: article PMC9482650, “Quantitative fragmentomics allow affinity mapping of interactomes” (Nature Communications, 2022)
Numbering of substitutions follows the chain as printed.

T1: LIN7A, O14910
T1 sequence (O14910 103-200, limits assumed, looked up): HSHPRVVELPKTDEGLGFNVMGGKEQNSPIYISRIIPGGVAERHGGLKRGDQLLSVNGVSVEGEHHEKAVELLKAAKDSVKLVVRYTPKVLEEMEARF

T2: GRIP1_7, Q9Y3R0
T2 sequence (Q9Y3R0 999-1096, limits assumed, looked up): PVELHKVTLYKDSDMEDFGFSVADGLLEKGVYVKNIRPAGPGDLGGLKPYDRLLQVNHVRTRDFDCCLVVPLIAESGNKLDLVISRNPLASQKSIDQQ

T3: RAPGEF6, Q8TEU7
T3 sequence (Q8TEU7 525-625, limits assumed, looked up): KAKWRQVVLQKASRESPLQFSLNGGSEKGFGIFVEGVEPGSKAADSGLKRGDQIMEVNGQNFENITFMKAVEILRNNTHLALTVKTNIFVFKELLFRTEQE

T4: GRIP1_4, Q9Y3R0
T4 sequence (Q9Y3R0 467-571, limits assumed, looked up): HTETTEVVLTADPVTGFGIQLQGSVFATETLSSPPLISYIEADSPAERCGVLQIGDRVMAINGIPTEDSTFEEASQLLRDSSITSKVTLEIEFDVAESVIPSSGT

T5: PDZD2_2, O15018
T5 sequence (O15018 329-429, limits assumed, looked up): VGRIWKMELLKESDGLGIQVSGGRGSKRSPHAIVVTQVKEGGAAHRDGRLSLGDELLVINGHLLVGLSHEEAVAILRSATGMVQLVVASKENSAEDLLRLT

T6: PTPN13_1, Q12923
T6 sequence (Q12923 1088-1188, limits assumed, looked up): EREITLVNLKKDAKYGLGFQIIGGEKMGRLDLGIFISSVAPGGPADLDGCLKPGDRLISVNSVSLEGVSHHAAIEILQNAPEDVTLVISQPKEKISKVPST

T7: SNTB1, Q13884
T7 sequence (Q13884 107-205, limits assumed, looked up): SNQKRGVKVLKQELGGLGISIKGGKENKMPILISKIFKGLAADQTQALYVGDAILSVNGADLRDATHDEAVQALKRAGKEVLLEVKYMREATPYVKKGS

T8: NHERF3_3, Q5T2W1
T8 sequence (Q5T2W1 238-333, limits assumed, looked up): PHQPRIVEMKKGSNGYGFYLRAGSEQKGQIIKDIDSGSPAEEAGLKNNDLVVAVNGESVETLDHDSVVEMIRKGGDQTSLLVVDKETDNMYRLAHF

T9: SNTG1, Q9NSN8
T9 sequence (Q9NSN8 52-150, limits assumed, looked up): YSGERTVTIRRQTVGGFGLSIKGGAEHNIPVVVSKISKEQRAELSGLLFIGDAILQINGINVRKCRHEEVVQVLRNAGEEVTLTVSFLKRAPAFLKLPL

T10: MPDZ_5, O75970
T10 sequence (O75970 695-796, limits assumed, looked up): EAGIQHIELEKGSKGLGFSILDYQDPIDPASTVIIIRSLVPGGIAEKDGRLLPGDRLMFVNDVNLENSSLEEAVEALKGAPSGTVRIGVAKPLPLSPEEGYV

T11: DFNB31_3, Q9P202
T11 sequence (Q9P202 811-907, limits assumed, looked up): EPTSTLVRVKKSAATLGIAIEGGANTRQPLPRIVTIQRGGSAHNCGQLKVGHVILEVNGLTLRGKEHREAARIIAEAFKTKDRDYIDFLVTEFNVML

T12: LIN7C, Q9NUP9
T12 sequence (Q9NUP9 88-185, limits assumed, looked up): T1 sequence (O14910 103-200, limits assumed, looked up) with D13E, V20I, V40I, E42D, K77Q, D78G, S79K, A96S

T13: SYNJ2BP, P57105
T13 sequence (P57105 8-110, limits assumed, looked up): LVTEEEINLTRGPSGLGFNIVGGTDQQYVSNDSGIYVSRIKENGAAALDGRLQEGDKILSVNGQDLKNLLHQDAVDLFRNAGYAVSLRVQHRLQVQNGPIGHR


Each binder was assayed against T1, LIN7A, O14910 (assay: holdup assay). Conditions: plain residues with an end cap or a label only (N-terminal biotin on a linker: ado-ado).
Set-up: key: below the threshold = too weak to quantify, mostly under pKd 3.1 to 4

Binder | pKd
NASRTRITFV [MCM7, P33993] | below the threshold
ANGLMQTSKL [SSTR5, P35346] | below the threshold

What follows are binders tested against TJP1_3, Q07157 (assay: holdup assay). Conditions: plain residues with an end cap or a label only (N-terminal biotin on a linker: ado-ado).
Set-up: key: below the threshold = too weak to quantify, mostly under pKd 3.1 to 4

Sequence of TJP1_3, Q07157 (Q07157 416-512): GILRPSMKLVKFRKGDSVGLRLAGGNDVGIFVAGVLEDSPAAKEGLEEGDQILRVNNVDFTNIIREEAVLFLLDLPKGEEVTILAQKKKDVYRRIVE

Binder | pKd
NASRTRITFV [MCM7, P33993] | below the threshold
ANGLMQTSKL [SSTR5, P35346] | below the threshold

Each binder was assayed against FRMPD3, Q5JV73 (assay: holdup assay). Conditions: plain residues with an end cap or a label only (N-terminal biotin on a linker: ado-ado).
Set-up: key: below the threshold = too weak to quantify, mostly under pKd 3.1 to 4

Sequence of FRMPD3, Q5JV73 (Q5JV73 12-100): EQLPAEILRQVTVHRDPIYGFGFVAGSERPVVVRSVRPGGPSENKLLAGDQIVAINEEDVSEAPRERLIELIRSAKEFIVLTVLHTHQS

Binder | pKd
NASRTRITFV [MCM7, P33993] | below the threshold
ANGLMQTSKL [SSTR5, P35346] | below the threshold

The binders below were run against MAST2, Q6P0Q8 (assay: holdup assay). Conditions: plain residues with an end cap or a label only (N-terminal biotin on a linker: ado-ado).
Set-up: key: below the threshold = too weak to quantify, mostly under pKd 3.1 to 4

Sequence of MAST2, Q6P0Q8 (Q6P0Q8 1099-1202): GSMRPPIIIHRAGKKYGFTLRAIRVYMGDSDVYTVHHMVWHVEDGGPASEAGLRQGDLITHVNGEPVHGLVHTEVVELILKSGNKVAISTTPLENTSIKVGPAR

Binder | pKd
NASRTRITFV [MCM7, P33993] | 4.99
ANGLMQTSKL [SSTR5, P35346] | 5.34

The binders below were run against FRMPD2_2, Q68DX3 (assay: holdup assay). Conditions: plain residues with an end cap or a label only (N-terminal biotin on a linker: ado-ado).
Set-up: key: below the threshold = too weak to quantify, mostly under pKd 3.1 to 4

Sequence of FRMPD2_2, Q68DX3 (Q68DX3 944-1038): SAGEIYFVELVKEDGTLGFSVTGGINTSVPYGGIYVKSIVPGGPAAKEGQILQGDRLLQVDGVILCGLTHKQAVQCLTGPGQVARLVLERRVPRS

Binder | pKd
NASRTRITFV [MCM7, P33993] | 5.11
ANGLMQTSKL [SSTR5, P35346] | below the threshold

These binders were tested against T2, GRIP1_7, Q9Y3R0 (assay: holdup assay). Conditions: plain residues with an end cap or a label only (N-terminal biotin on a linker: ado-ado).
Set-up: key: below the threshold = too weak to quantify, mostly under pKd 3.1 to 4

Binder | pKd
NASRTRITFV [MCM7, P33993] | below the threshold
ANGLMQTSKL [SSTR5, P35346] | below the threshold

What follows are binders tested against T3, RAPGEF6, Q8TEU7 (assay: holdup assay). Conditions: plain residues with an end cap or a label only (N-terminal biotin on a linker: ado-ado).
Set-up: key: below the threshold = too weak to quantify, mostly under pKd 3.1 to 4

Binder | pKd
NASRTRITFV [MCM7, P33993] | below the threshold
ANGLMQTSKL [SSTR5, P35346] | below the threshold

The binders below were run against T4, GRIP1_4, Q9Y3R0 (assay: holdup assay). Conditions: plain residues with an end cap or a label only (N-terminal biotin on a linker: ado-ado).
Set-up: key: below the threshold = too weak to quantify, mostly under pKd 3.1 to 4

Binder | pKd
NASRTRITFV [MCM7, P33993] | below the threshold
ANGLMQTSKL [SSTR5, P35346] | below the threshold

What follows are binders tested against T5, PDZD2_2, O15018 (assay: holdup assay). Conditions: plain residues with an end cap or a label only (N-terminal biotin on a linker: ado-ado).
Set-up: key: below the threshold = too weak to quantify, mostly under pKd 3.1 to 4

Binder | pKd
NASRTRITFV [MCM7, P33993] | 4.7
ANGLMQTSKL [SSTR5, P35346] | below the threshold

What follows are binders tested against GRID2IP_1, A4D2P6 (assay: holdup assay). Conditions: plain residues with an end cap or a label only (N-terminal biotin on a linker: ado-ado).
Set-up: key: below the threshold = too weak to quantify, mostly under pKd 3.1 to 4

Sequence of GRID2IP_1, A4D2P6 (A4D2P6 1-87): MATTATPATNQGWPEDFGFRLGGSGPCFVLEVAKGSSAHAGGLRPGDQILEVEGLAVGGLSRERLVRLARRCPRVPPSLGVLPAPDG

Binder | pKd
NASRTRITFV [MCM7, P33993] | below the threshold
ANGLMQTSKL [SSTR5, P35346] | below the threshold

What follows are binders tested against T6, PTPN13_1, Q12923 (assay: holdup assay). Conditions: plain residues with an end cap or a label only (N-terminal biotin on a linker: ado-ado).
Set-up: key: below the threshold = too weak to quantify, mostly under pKd 3.1 to 4

Binder | pKd
NASRTRITFV [MCM7, P33993] | below the threshold
ANGLMQTSKL [SSTR5, P35346] | below the threshold

These binders were tested against LNX1_3, Q8TBB1 (assay: holdup assay). Conditions: plain residues with an end cap or a label only (N-terminal biotin on a linker: ado-ado).
Set-up: key: below the threshold = too weak to quantify, mostly under pKd 3.1 to 4

Sequence of LNX1_3, Q8TBB1 (Q8TBB1 500-596): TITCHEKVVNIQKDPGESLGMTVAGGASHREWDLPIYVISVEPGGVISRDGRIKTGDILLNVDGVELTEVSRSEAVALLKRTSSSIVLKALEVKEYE

Binder | pKd
NASRTRITFV [MCM7, P33993] | below the threshold
ANGLMQTSKL [SSTR5, P35346] | below the threshold

These binders were tested against Inadl_5, Q8NI35 (assay: holdup assay). Conditions: plain residues with an end cap or a label only (N-terminal biotin on a linker: ado-ado).
Set-up: key: below the threshold = too weak to quantify, mostly under pKd 3.1 to 4

Sequence of Inadl_5, Q8NI35 (Q8NI35 673-780): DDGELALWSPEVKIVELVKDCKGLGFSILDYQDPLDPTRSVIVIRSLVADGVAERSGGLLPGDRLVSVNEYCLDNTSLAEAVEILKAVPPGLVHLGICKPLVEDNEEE

Binder | pKd
NASRTRITFV [MCM7, P33993] | 4.34
ANGLMQTSKL [SSTR5, P35346] | below the threshold

The binders below were run against PICK1, Q9NRD5 (assay: holdup assay). Conditions: plain residues with an end cap or a label only (N-terminal biotin on a linker: ado-ado).
Set-up: key: below the threshold = too weak to quantify, mostly under pKd 3.1 to 4

Sequence of PICK1, Q9NRD5 (Q9NRD5 17-115): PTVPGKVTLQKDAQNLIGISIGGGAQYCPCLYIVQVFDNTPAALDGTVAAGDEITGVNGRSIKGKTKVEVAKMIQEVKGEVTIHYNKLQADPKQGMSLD

Binder | pKd
NASRTRITFV [MCM7, P33993] | 4.17
ANGLMQTSKL [SSTR5, P35346] | 4.08

The binders below were run against MAGI2_5, Q86UL8 (assay: holdup assay). Conditions: plain residues with an end cap or a label only (N-terminal biotin on a linker: ado-ado).
Set-up: key: below the threshold = too weak to quantify, mostly under pKd 3.1 to 4

Sequence of MAGI2_5, Q86UL8 (Q86UL8 915-1017): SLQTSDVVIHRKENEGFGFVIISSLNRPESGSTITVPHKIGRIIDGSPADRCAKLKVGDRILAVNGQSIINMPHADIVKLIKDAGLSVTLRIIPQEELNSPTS

Binder | pKd
NASRTRITFV [MCM7, P33993] | 3.75
ANGLMQTSKL [SSTR5, P35346] | below the threshold

What follows are binders tested against T7, SNTB1, Q13884 (assay: holdup assay). Conditions: plain residues with an end cap or a label only (N-terminal biotin on a linker: ado-ado).
Set-up: key: below the threshold = too weak to quantify, mostly under pKd 3.1 to 4

Binder | pKd
NASRTRITFV [MCM7, P33993] | 5.13
ANGLMQTSKL [SSTR5, P35346] | below the threshold

The binders below were run against GORASP2, Q9H8Y8 (assay: holdup assay). Conditions: plain residues with an end cap or a label only (N-terminal biotin on a linker: ado-ado).
Set-up: key: below the threshold = too weak to quantify, mostly under pKd 3.1 to 4

Binder | pKd
NASRTRITFV [MCM7, P33993] | 5.38
ANGLMQTSKL [SSTR5, P35346] | below the threshold

Each binder was assayed against T8, NHERF3_3, Q5T2W1 (assay: holdup assay). Conditions: plain residues with an end cap or a label only (N-terminal biotin on a linker: ado-ado).
Set-up: key: below the threshold = too weak to quantify, mostly under pKd 3.1 to 4

Binder | pKd
NASRTRITFV [MCM7, P33993] | 3.53
ANGLMQTSKL [SSTR5, P35346] | 3.81

What follows are binders tested against T9, SNTG1, Q9NSN8 (assay: holdup assay). Conditions: plain residues with an end cap or a label only (N-terminal biotin on a linker: ado-ado).
Set-up: key: below the threshold = too weak to quantify, mostly under pKd 3.1 to 4

Binder | pKd
NASRTRITFV [MCM7, P33993] | 3.71
ANGLMQTSKL [SSTR5, P35346] | below the threshold

The binders below were run against AHNAK1, Q09666 (assay: holdup assay). Conditions: plain residues with an end cap or a label only (N-terminal biotin on a linker: ado-ado).
Set-up: key: below the threshold = too weak to quantify, mostly under pKd 3.1 to 4

Sequence of AHNAK1, Q09666 (Q09666 4-100): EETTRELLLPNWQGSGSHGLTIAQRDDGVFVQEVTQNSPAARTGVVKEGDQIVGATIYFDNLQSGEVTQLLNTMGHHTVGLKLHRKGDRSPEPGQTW

Binder | pKd
NASRTRITFV [MCM7, P33993] | below the threshold
ANGLMQTSKL [SSTR5, P35346] | below the threshold

These binders were tested against T10, MPDZ_5, O75970 (assay: holdup assay). Conditions: plain residues with an end cap or a label only (N-terminal biotin on a linker: ado-ado).
Set-up: key: below the threshold = too weak to quantify, mostly under pKd 3.1 to 4

Binder | pKd
NASRTRITFV [MCM7, P33993] | 4.37
ANGLMQTSKL [SSTR5, P35346] | below the threshold

What follows are binders tested against T11, DFNB31_3, Q9P202 (assay: holdup assay). Conditions: plain residues with an end cap or a label only (N-terminal biotin on a linker: ado-ado).
Set-up: key: below the threshold = too weak to quantify, mostly under pKd 3.1 to 4

Binder | pKd
NASRTRITFV [MCM7, P33993] | 4.74
ANGLMQTSKL [SSTR5, P35346] | 4.22

These binders were tested against T12, LIN7C, Q9NUP9 (assay: holdup assay). Conditions: plain residues with an end cap or a label only (N-terminal biotin on a linker: ado-ado).
Set-up: key: below the threshold = too weak to quantify, mostly under pKd 3.1 to 4

Binder | pKd
NASRTRITFV [MCM7, P33993] | below the threshold
ANGLMQTSKL [SSTR5, P35346] | below the threshold

Each binder was assayed against T13, SYNJ2BP, P57105 (assay: holdup assay). Conditions: plain residues with an end cap or a label only (N-terminal biotin on a linker: ado-ado).
Set-up: key: below the threshold = too weak to quantify, mostly under pKd 3.1 to 4

Binder | pKd
NASRTRITFV [MCM7, P33993] | 4.44
ANGLMQTSKL [SSTR5, P35346] | below the threshold
